These results are taken from patent US20230059344A1.

The experiment has as its target h4-1-BB on a genetically engineered Jurkat T cell line (Promega 4-1BB Bioassay) (human) (UniProt Q07011). In words: cell-based or functional assay. The note with it: scale: relative luciferase.

Sequence of h4-1-BB on a genetically engineered Jurkat T cell line (Promega 4-1BB Bioassay) (human) (Q07011 24-255, change not shown): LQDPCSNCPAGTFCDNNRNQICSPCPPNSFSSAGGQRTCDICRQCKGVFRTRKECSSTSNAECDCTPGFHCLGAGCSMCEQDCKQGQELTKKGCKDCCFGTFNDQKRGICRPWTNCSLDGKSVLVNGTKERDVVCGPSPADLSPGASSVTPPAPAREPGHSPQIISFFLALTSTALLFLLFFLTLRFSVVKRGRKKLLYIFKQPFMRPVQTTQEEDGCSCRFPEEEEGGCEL

“His-tagged h4-1BBL cross-linked with an Fc (from UniProt P41273 71-254) (ligand)” displayed a luciferase expression by Jurkat-h4-1BB cells of 1.
